According to US20020123623:

System: T1, Ntlim1 (effector plasmid, BY-2 protoplasts) (Nicotiana tabacum)
T1 sequence: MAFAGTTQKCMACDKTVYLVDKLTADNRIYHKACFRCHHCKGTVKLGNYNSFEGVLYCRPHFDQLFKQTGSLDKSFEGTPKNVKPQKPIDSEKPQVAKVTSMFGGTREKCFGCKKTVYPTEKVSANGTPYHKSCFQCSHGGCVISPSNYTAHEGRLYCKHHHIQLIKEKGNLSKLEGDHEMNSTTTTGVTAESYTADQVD
Assay: cell_activity
Conditions: about three times GUS expression vs reporter alone in tobacco BY-2 protoplasts; direct binding not measured

Sequence: CCACTTGAGTAC (double strand)
- activity: 3 fold
